Test: yeast display, Sf9 membrane polyspecificity reagent, FACS + sequencing; frameworks hold sequencing errors
Procedure, shortened: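 Genes from sorted yeast were amplified by colony PCR, read by MiSeq 2 × 250 sequencing and filtered on CDR length. These cells carried a synthetic nanobody library in Saccharomyces cerevisiae BJ5465 and were sorted by FACS into low and high (top ~1%) gates on anti-HA and streptavidin fluorescence. Polyreactivity is labelled according to the gate of origin.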

Row | Sequence | polyreactivity (PSR sort gate)
1 | QVQLVESGGGLVQAGGSLRLSCSASGSIFPAYAMGWYRQAPGKERELVASITGSGGSTYYADSVKGRFTISRDNAKNTVYLQMNSLKPEDTAVYYCNARYYVYSATVDRYYHFYYCGQGTQVTVSS | high polyreactivity
2 | QVQLVESGGGLVQAGGSLRLSCAASGSIFGRYVMGWYRQAPGKERELVAAISTSGDSTYYADSVKGRFTISRDNAKNTVYLQMNSLKPEDTAVYYCNARKRTFPSRSIGGDYWGQGTQVTVSS | high polyreactivity
3 | QVQLVESGGGLVQAGGSLRLSCAASGFTFSVNAMGWYRQAPGKERELVADIDWSGGSTYYADSVKGRFTISRDNAKNTVYLQMNSLKPEDTAVYYCSADYYSPDSYVQGSSGEYWGQGTQVTVSS | low polyreactivity
4 | QVQLVESGGGLVQAGGSLRLSCAASGFTFAYNAMGWYRQAPGKEREFVAAITSSGGSTYYADSVKGRFTISRDYAKNTVYLQMNSLKPEHTAVYYCNAYYTFPRYQYGYWGQGTQVTVSS | high polyreactivity
5 | QVQLVESGGGLVQAGGSLRLSCAASGSTFYLNAMGWYRQAPGKERELVAAINSGDSTNYADSVKGRFTISRDNAKNSVYLQMNSLKPEDNAVYYCARDRYPSEGDYWGQGTQVTVSS | low polyreactivity
6 | QVQLVESGGGLVQAGGSLRLSCAASGFIFYYAMGWYRQAPVKERELVAAISRGGSTNYADSVKGRFTISRDNAKNTVYLQMNSLKPEDTAVYYCNARVYSSRARWGTYDYWGQGTQVTVSS | high polyreactivity
7 | QVQHVESGGGLVQAGGSLRLSCAASGSTFRYYAMGWYRQAPGKERELVAAITSSGTSTYYADSVKGRFTISRDNAKNTVYLQMNSLKPEDTAVYSCAAPPVYKWVSSRYDYWGQGTQVTVSS | low polyreactivity
8 | QDQLVESGGGLVQAGGSLRLSFAASGSTFFTYPMGWYRQDPGKERELVAAITLNGGSTYYADSVKGRFTISRDNAKNTVYLQMISLKPEDTAVYYCAAEVPDTDYNYWGQGTQVTVSS | low polyreactivity
9 | QVQLVESGGGLVQAGGSLRLSCAASGSILYPYAMGWYRQAPGKERELVAAISRGGSTNYADSVKGRFTISRDNAKDTVYLQMNSLKPEDTAVYYCATAYTRFSQRYEYYVIYWQNDYWGQGTQVTVSS | low polyreactivity
10 | QVQHEESGGGLVQAGGSLRLSCAASGSIFYDNGMGWYRPAPGKERELVAAISRGGTTNYADSVKGRFTISRDKAKNTVYFQMNSLKPEDTAVYYCNADTRFTYWGSWYDYWGQGTQVTVSS | low polyreactivity
11 | QVQLVESGGGLVQAGGSLRLSCAASGRIFAGYAMGWYRQAPGKERELVASIRSSGSTYYADSVKGRFTISRDNAKNTVYLQMNSLKPEDTAVYYCNAVPRRRRYSRLGYWGQGTQVTVSS | high polyreactivity
12 | QVQLVESVGCLVQAGGSHRLSCAASVFIFGANAMGWYRQAPGKESELVAAIRWSSGTTYYADSVKGRFTISRDNAKNTVYLQINSLKPEDTAVYYCAAGGLARTWYAYYYWGQGTQVTVSS | low polyreactivity
13 | QVQLVESGGGLVQAGGTLRLSCAASGGIFGGYAMGWYRQAPGTEGELVAVITSGGSTYYADSVKGRFTISRDNAKNTVYLQMNSLKPEDTAVYYCAADGHSYSYSTYDYWGQGTQVTVSS | low polyreactivity
14 | QVQLVESGGGLVQAGGSLRLSCAASGIIFTHNAMGWYRQAPGKERELVAAISWSGGSTYYADSVKGRFTISRDNAKNTVYLQMNSLKPEDTAVYYCNAKFKQSYAQVAKFNSWGQGTQVTVSS | low polyreactivity
15 | QVQLVESGGGIVQAGGSLRLSCAASGNIFHKNAMGWYRQAPGKERELVASISCSGGSTYYADSVKGRFTISRDNAKNTVYLQMNSLKPEDTAVYYCATDAFGYPVNRYALNDYWGQGTQVTVSS | low polyreactivity
16 | QVQLVESGGVLVQAGGSLRLSSAASGRTFFRYTMGWYRQAPGKERELVAAISRSDGTTYYADSVKGRFTISRDSAKNTVYLEMNSLKPEDTAVYYCAKSLPSGYYYWGQGTQVTVSS | low polyreactivity
17 | QVQLVESGGGLVQAGGSLRLSCAASGRIFERNAMGWYRQAPGKERELVAAITYNGGRTYYADSVKGRFTISRDNAKNTVYLQMNSLKPEDTAVYYCNAQSRVTRSSYRGSPRYDYWGQGTQVTVSS | low polyreactivity
18 | QVQLVESGGGLVQAGGSLRLSCAASGSTFIYYAMGWYRQAPGKERELVASISRSGGSTYYADSVKGRFTISRDNAKNTVYLQMNSLKPEDTAVYYCAAVGWTYEYWEWYDYWGQGTQVTVSS | high polyreactivity
19 | QVQLVESGGGLVQAGGSLRLSCAASGLTISAYAMGWYRQAPGKERELVAAITSSGGSTYADSVKGRFTISRDNAKNTVYLQMNSLKPEVTAVYYCAARVVRYGYKYYYWGQGTQVTVSS | low polyreactivity
20 | QVQLVESGGGLVQAGGSLSLSCAASGRNFVINALGWYRQAPGTERELVARIRSGGSTNYADSVKGRFTISRDNAKNTVYLQMNSLKPEDTAVYYCAAYLRTERYGYWGQGTQVTVSS | high polyreactivity
21 | QVQLVESGGGLVQAGGSLRLSCAASGIIFAANAMGWYRQAPGKERELVAAISKNGGITYYADSVKGRFTISRDNAKNTVYLQMNSLKPEDTAVYYCAAKLSRRYYYWGQGTQVTVSS | high polyreactivity
22 | QVQLVESGGGLVQAGGSLRLSCAASGITFYYYAMGWYRQAPGKERELVAAISRSGITYYADSVKGRFTISRDNAKNTVYLQMNSLKPEDTAVYYCAAGRRFDQSMYYWGQGTQVTVSS | high polyreactivity

Row | Sequence | polyreactivity (PSR sort gate)
23 | QVQLVESGGGLVQAGGSLRLSCAASGRIFDIYTMGWYRQAPGNERELVASITKRGGSTYYADSVKGRFTISRDNAKNTVYLQMNSLKPEDTAVYYCNVAGKQKPYYVTTRLDYWGQGTQVTVSS | high polyreactivity
24 | QDHLVESGGGLVQAGGSLRLSCAASGRIFTPNAMGWYRQAPGKERELVAAITSGGSTNYADSVKGRFTISRDNAKNTVYLQMNSLKPQDTAVYYCAVRYYYCSKKRNYWGQGTHVTVSS | high polyreactivity
25 | QVQLVESGGGLVQAGGSLRLSCAASGSIYGLYAMGWSREAPGKEREVVATITESGGSTYYADSVKGRFTISRDNAKNTVYLQMKSLKPEDTAVYYCHSDEVSAQYDDWGQGTQVTVSS | low polyreactivity
26 | QVQLVESGGGLVQAGGSLRLSCAASGLIFWGYTMGWYRPAPGKERELVASITTSGSTYYADSVKGRFTISRDNAKNTVYLQMNSLKPEDTAVYYCAVDNYYTPWYPYLGYDSWGQGTQVTVSS | low polyreactivity
27 | QVQLVESGGGLVQAGGSLRLSCAASGRTFYYYSMGWYIQAPGKEREFVAAISYRGGSTYYADSVKGRFTITRDNAKNTVYFQMNSLNPEDTAVYYCAAGLVYLFISHNDYWGQGTQVTVSS | low polyreactivity
28 | QVQLVESGGGIDQAGGSLRLRCAASGSIFAYYAMGWYRQAPGKERELVAAISWNGGRTYYADSVKGRFTISRDNAKNTVYLQMNSLKPEDTAVYYCNAVRWAIYDYWGQGTQVTLSS | high polyreactivity
29 | QVQLVESGGGIVQAGGSLRLSCAASGGIFFIYTMGWYRQAPGKERELVAAITSTGDTNYADSVKGRFTISRDNAKNTVYLQMNSLKPEDTAVYYCNKDYGTRGKGYDYWGQGTQVTVSS | low polyreactivity
30 | QVQLVESGGGLVQAGGSLRLSCAASGRIIRWYAMAWYRQAPGKERELVAAITWRGGSTDYADSVKGRFTISRDNAKNTVYLQMNSLKPEDTAVYYCNAAGFKTSWYYYGDWYDYWGQGTQVTVSS | high polyreactivity
31 | QVLLQESGGGLVQEGGSLRLTCAASGNIFSAGGMAWYRQATVNERELVAGIGTGTSTNYADSVKGRFTISRDNAKNTVYLQMNSLKPEDTAVYYCAAAYYSGLSHWYWGQCTQVTVSS | low polyreactivity
32 | QVQLVESGGGLVQAGGSLRLSCAASGSTIFGYALGSYRQAPGKERELVAASSSGGSTYYADSVKGRFTISRDNAKNTVYLQMNSLKPEDTAVYYCAATRRLKRYWAQGTQVTVSS | high polyreactivity
33 | QVQLVESGGGVVQAGGSLRLSCAASGSIFLRYAMGWYREAPGKERELVAAITSSGGSTYYADSVKGRFTISRDNAKNTVYLQMNSLKPQDNAVYYCNARAYTRYSRLDYWGQGTQVSVSS | high polyreactivity
34 | QVQLVESGGGLVQAGGRLRLSCAASGSTFLQNAMGWYRQAPGKEREFVAAISRSGGSTYYADSVKGRFTISRDNAKNTVYLQMNSLKPEDTAVYYCARRYWPGSAYWIYDYWGQGTQVTVSS | high polyreactivity
35 | QVQLVESGGGLVQAGGSLRLSCAASGFIFPPYAMGWYRQAPGTERELVAAIRISGGSTYYADSVKGRFTISRDNAKNTVYFHLNSLKPEDTAVYYCAARYVSSTPAFAYYYWGQGTQVTVSS | high polyreactivity
36 | QVQLVEAGGGLVQAGGSLRLSCAASGSIFFIYAMGWYRQAPGKERELVAAITSGDRTYSADSVKGRFTISRDNAKNTVYLQMNSLKPEDTAVYYCNADYYISYWGQGTQVTVSS | low polyreactivity
37 | QEQLQESGGGLVQAGGSLRLSCAASGNIYDADIMGWYRQAPGKERELVTSITDGGSTNYADSVKGRFTISRDNAKNTVYLQMNSLKPEDTAVYFCAAIAYPVIPTSFDYNSDYSYWGQGTQVTVSS | low polyreactivity
38 | QVQLVESGGGLVQAGGSLRLSCAASGRIFARYAMGWYRQAPGKERELVASINSGGNTYYADSVKGRFTISRDNAKNTVYLQMNSLKPEDTAVYYCAAVVGRRASSRSRFEYDYWGQGTQVTVSS | low polyreactivity
39 | QVQLVESGGGLVQAGGSLRLSCAASGSIFKFYTMGWYRQAAGKEWELVATISRSGGGTFYADSVKGRFTISRDNAKNTVYLQMNSLKPEDTAVYYCAADPAFTHYPYGYGYWGQGTQVTVSS | low polyreactivity
40 | QVQLVESGGGLVQAGGSLRLSCAASGSIFSSYAMGWYRQAPGKERALVAGISRRGGSTYYADSVKGRFTISRDNAKNTVYLQMNSLKPEDTAVYYCNARSAGSDLDYWGQGTQVTVSS | high polyreactivity
41 | QVQLVESGGGLVQAGGSLRLSCADSGYTFGTYAMGWYIKAPGKERELVAAISNSGGSTYYADSVKGRFTISRDNAKNTVYLQMNSLKPEDTAVYYFNTDGLVRNGPFYSWGLGTQVTVSS | low polyreactivity
42 | QVQLVESGGGLVQAGGSLRLSCAASGSIFSAYAMGWYRQAPGKEREIVASITWSGGSTYYADSVKGRFTISRDNAKNTVYLQMNSLKPEDTAVYYCAAVYVTWYNNYEYWGQGTQVTVSS | high polyreactivity
43 | QVQLVESGGGLVQAGGSLRLSCAASGFTFFDNAMGWYRQAPGKERELVAVISSGGRTYYADSVKGRFTISRDNAKNTVYLQMNSLTPEDTAVYYCNAARAQRVKYDYWGQGTQVTVSS | high polyreactivity

— the nanobody polyreactivity screen of Harvey et al. (2022)
